B1: H2-Kb / Ed8 (parent complex)
chain 1: AQSVTQPDARVTVSEGASLQLRCKYSYFGTPYLFWYVQYPRQGLQLLLKYYPGDPVVQGVNGFEAEFSKSNSSFHLRKASVHWSDWAVYFCAVSPGSGGKLTLGAGTRLQVNL
chain 2: DSGVVQSPRHIIKEKGGRSVLTCIPISGHSNVVWYQQTLGKELKFLIQHYEKVERDKGFLPSRFSVQQFDDYHSEMNMSALELEDSAMYFCASSPRASNYTFGSGTRLLVI
chain 3: not shown
chain 4: IQKTPQIQVYSRHPPENGKPNILNCYVTQFHPPHIEIQMLKNGKKIPKVEMSDMSFSKDWSFYILAHTEFTPTETDTYACRVKHDSMAEPKTVYWDRDM
chain 5: SIINFEKL
B2: H2-Kb / Ed39 (parent complex)
chain 1: GEQVEQRPPHLSVREGDSAVIICTYTDPNSYYFFWYKQEPGAGLQLLMKVFSSTEINEGQGFTVLLNKKDKQLSLNLTAAHPGDSAVYFCATMSNYNVLYFGSGTKLTVEP
chain 2: GALVYQYPRRTICKSGTSMRMECQAVGFQATSVAWYRQSPQKTFELIALSTVNSAIKYEQNFTQEKFPISHPNLSFSSMTVLNAYLEDRGLYLCGARDGSYEQYFGPGTRLTVL
chain 3: not shown
chain 4: B1 chain 4
chain 5: SIINFEKL
Note: test concentration or dose not given here.

Variants of: B1
Assay: % of reporter cells activated (NFAT-GFP), raw
Work on chain 5 N4D yielded a ratio to parent of 0.436.
Work on chain 5 E6K yielded a ratio to parent of 1.14.
chain 5 E6F gave a ratio to parent of 0.0912.
chain 5 E6T gave a ratio to parent of 0.127.
Work on chain 5 E6S yielded a ratio to parent of 0.349.
Variant chain 5 E6H has a ratio to parent of 0.573.
chain 5 E6D was tested, and the ratio to parent was 1.13.
For chain 5 L8R, the ratio to parent was 1.24.
Variant chain 5 I3V has a ratio to parent of 1.26.
chain 5 I3G was tested, and the ratio to parent was 1.22.
In the case of chain 5 I3E, the ratio to parent is reported as 1.17.
chain 5 I2G gave a ratio to parent of 1.3.
chain 5 F5R was tested, and the ratio to parent was 1.19.
chain 5 F5H was tested, and the ratio to parent was 1.23.
In the case of chain 5 F5A, the ratio to parent is reported as 1.24.
In the case of chain 5 S1F, the ratio to parent is reported as 1.25.

Variants of: B2
Assay: % of reporter cells activated (NFAT-GFP), raw
Variant chain 5 S1A has a ratio to parent of 0.0073.
Work on chain 5 S1D yielded a ratio to parent of 0.00365.
Work on chain 5 S1P yielded a ratio to parent of 0.00622.
With chain 5 S1E the ratio to parent was 0.00392.
Work on chain 5 S1Q yielded a ratio to parent of 0.00347.
In the case of chain 5 S1L, the ratio to parent is reported as 0.00419.
For chain 5 S1F, the ratio to parent was 0.00514.
Work on chain 5 S1H yielded a ratio to parent of 0.0798.
With chain 5 S1T the ratio to parent was 0.00457.
chain 5 S1G gave a ratio to parent of 0.272.
In the case of chain 5 S1C, the ratio to parent is reported as 0.0621.
For chain 5 S1I, the ratio to parent was 0.00338.
chain 5 S1V showed a ratio to parent of 0.0243.
For chain 5 S1N, the ratio to parent was 0.00689.
Variant chain 5 S1M has a ratio to parent of 0.00499.
chain 5 S1K showed a ratio to parent of 0.0783.
Variant chain 5 S1W has a ratio to parent of 0.0114.
chain 5 I2D showed a ratio to parent of 0.612.
Work on chain 5 I2S yielded a ratio to parent of 0.779.
In the case of chain 5 I2V, the ratio to parent is reported as 1.09.
With chain 5 I2A the ratio to parent was 0.954.
chain 5 I2T was tested, and the ratio to parent was 0.781.
Work on chain 5 I2M yielded a ratio to parent of 0.907.
With chain 5 I2K the ratio to parent was 0.396.
With chain 5 I2Q the ratio to parent was 0.366.
For chain 5 I2H, the ratio to parent was 0.244.
With chain 5 I2N the ratio to parent was 0.18.
In the case of chain 5 I2Y, the ratio to parent is reported as 0.284.
With chain 5 I2R the ratio to parent was 0.593.
chain 5 I2F was tested, and the ratio to parent was 0.683.
Work on chain 5 I2G yielded a ratio to parent of 0.841.
chain 5 I2E was tested, and the ratio to parent was 0.719.
Variant chain 5 I2W has a ratio to parent of 0.453.
Work on chain 5 L8W yielded a ratio to parent of 0.468.
In the case of chain 5 L8D, the ratio to parent is reported as 0.425.
In the case of chain 5 L8N, the ratio to parent is reported as 0.884.
chain 5 L8V gave a ratio to parent of 0.591.
chain 5 L8Y gave a ratio to parent of 0.83.
For chain 5 L8S, the ratio to parent was 0.462.
Work on chain 5 L8Q yielded a ratio to parent of 0.617.
Variant chain 5 L8G has a ratio to parent of 0.676.
chain 5 L8T was tested, and the ratio to parent was 0.703.
In the case of chain 5 L8P, the ratio to parent is reported as 0.453.
chain 5 L8E gave a ratio to parent of 0.361.
For chain 5 L8A, the ratio to parent was 0.663.
For chain 5 L8R, the ratio to parent was 0.801.
In the case of chain 5 L8F, the ratio to parent is reported as 0.64.
chain 5 L8K was tested, and the ratio to parent was 0.485.
For chain 5 L8I, the ratio to parent was 0.771.
With chain 5 L8M the ratio to parent was 0.762.
For chain 5 E6T, the ratio to parent was 0.034.
chain 5 E6A showed a ratio to parent of 0.0073.
With chain 5 E6P the ratio to parent was 0.00676.
chain 5 E6S was tested, and the ratio to parent was 0.0298.
With chain 5 E6R the ratio to parent was 0.00443.
For chain 5 E6Y, the ratio to parent was 0.0117.
For chain 5 E6L, the ratio to parent was 0.0111.
Work on chain 5 E6D yielded a ratio to parent of 0.265.
chain 5 E6W gave a ratio to parent of 0.00837.
chain 5 E6V gave a ratio to parent of 0.0176.
With chain 5 E6G the ratio to parent was 0.00768.
In the case of chain 5 E6C, the ratio to parent is reported as 0.0124.
chain 5 E6H was tested, and the ratio to parent was 0.0355.
chain 5 E6Q was tested, and the ratio to parent was 0.0946.
chain 5 E6F showed a ratio to parent of 0.00457.
Variant chain 5 E6I has a ratio to parent of 0.00482.
chain 5 E6M gave a ratio to parent of 0.0331.
Variant chain 5 E6N has a ratio to parent of 0.00523.
In the case of chain 5 N4D, the ratio to parent is reported as 1.25.
chain 5 N4S was tested, and the ratio to parent was 0.0741.
With chain 5 N4W the ratio to parent was 0.127.
With chain 5 N4Y the ratio to parent was 0.0203.
For chain 5 N4P, the ratio to parent was 0.174.
In the case of chain 5 N4F, the ratio to parent is reported as 0.0119.
chain 5 N4L was tested, and the ratio to parent was 0.196.
For chain 5 N4M, the ratio to parent was 0.00879.
chain 5 N4R was tested, and the ratio to parent was 0.22.
In the case of chain 5 N4K, the ratio to parent is reported as 0.0498.
For chain 5 N4C, the ratio to parent was 0.0192.
Variant chain 5 N4T has a ratio to parent of 0.00203.
For chain 5 N4H, the ratio to parent was 0.124.
With chain 5 N4E the ratio to parent was 0.106.
Variant chain 5 N4V has a ratio to parent of 0.00191.
chain 5 N4G gave a ratio to parent of 0.114.
For chain 5 N4A, the ratio to parent was 0.0243.
chain 5 F5P showed a ratio to parent of 0.281.
With chain 5 F5D the ratio to parent was 0.358.
chain 5 F5Q showed a ratio to parent of 0.712.
chain 5 F5N gave a ratio to parent of 0.484.
chain 5 F5T gave a ratio to parent of 0.844.
Work on chain 5 F5Y yielded a ratio to parent of 0.867.
In the case of chain 5 F5H, the ratio to parent is reported as 0.791.
With chain 5 F5V the ratio to parent was 0.821.
Work on chain 5 F5K yielded a ratio to parent of 0.374.
Variant chain 5 F5L has a ratio to parent of 0.765.
chain 5 F5E gave a ratio to parent of 0.259.
chain 5 F5A gave a ratio to parent of 0.973.
chain 5 F5W gave a ratio to parent of 0.738.
chain 5 F5R showed a ratio to parent of 0.562.
Variant chain 5 F5S has a ratio to parent of 0.829.
Variant chain 5 F5M has a ratio to parent of 1.01.
For chain 5 F5I, the ratio to parent was 0.622.
With chain 5 K7Y the ratio to parent was 0.0483.
With chain 5 K7Q the ratio to parent was 0.865.
Work on chain 5 K7A yielded a ratio to parent of 0.112.
In the case of chain 5 K7P, the ratio to parent is reported as 0.326.
chain 5 K7H gave a ratio to parent of 0.0199.
For chain 5 K7R, the ratio to parent was 0.355.
In the case of chain 5 K7F, the ratio to parent is reported as 0.0761.
chain 5 K7C was tested, and the ratio to parent was 0.331.
Variant chain 5 K7W has a ratio to parent of 0.355.
In the case of chain 5 K7I, the ratio to parent is reported as 0.0214.
chain 5 K7D was tested, and the ratio to parent was 0.00558.
In the case of chain 5 K7L, the ratio to parent is reported as 0.408.
Work on chain 5 K7S yielded a ratio to parent of 0.293.
For chain 5 K7V, the ratio to parent was 0.115.
chain 5 K7M showed a ratio to parent of 0.665.
Variant chain 5 I3Y has a ratio to parent of 0.0404.
For chain 5 I3S, the ratio to parent was 0.12.
Variant chain 5 I3G has a ratio to parent of 0.156.
Work on chain 5 I3D yielded a ratio to parent of 0.402.
chain 5 I3C showed a ratio to parent of 0.431.
chain 5 I3R gave a ratio to parent of 0.0638.
In the case of chain 5 I3M, the ratio to parent is reported as 0.564.
Variant chain 5 I3E has a ratio to parent of 0.558.
For chain 5 I3K, the ratio to parent was 0.286.
chain 5 I3F was tested, and the ratio to parent was 0.0488.
chain 5 I3A gave a ratio to parent of 0.56.
chain 5 I3T showed a ratio to parent of 0.416.
chain 5 I3H was tested, and the ratio to parent was 0.0308.
With chain 5 I3L the ratio to parent was 0.706.
Work on chain 5 I3N yielded a ratio to parent of 0.314.
Variant chain 5 I3V has a ratio to parent of 0.956.
Work on chain 5 I3P yielded a ratio to parent of 0.293.
